# Experimental data taken from article PMC8110956, “An infection-induced RhoB-Beclin 1-Hsp90 complex enhances clearance of uropathogenic Escherichia coli” (Nature Communications, 2021).
# Molecular target: T1, GST-fused Beclin 1 (human, UniProt Q14457 1-450)
# T1 construct: Beclin 1, in pGEX4T-3; also called GST-Beclin 1; source: E. coli BL21 (DE3), purified (Glutathione Sepharose 4B)
# Experiment: pull-down; about 1 μg of each purified GST-fused protein combined in 0.8% BSA in PBS at 4 °C overnight; precipitated with anti-RhoB or anti-Beclin 1 antibody (IgG as control) plus protein G Sepharose; western blot
# Details: both partners purified
# T1 sequence (Q14457 whole entry, the tested form may be a part): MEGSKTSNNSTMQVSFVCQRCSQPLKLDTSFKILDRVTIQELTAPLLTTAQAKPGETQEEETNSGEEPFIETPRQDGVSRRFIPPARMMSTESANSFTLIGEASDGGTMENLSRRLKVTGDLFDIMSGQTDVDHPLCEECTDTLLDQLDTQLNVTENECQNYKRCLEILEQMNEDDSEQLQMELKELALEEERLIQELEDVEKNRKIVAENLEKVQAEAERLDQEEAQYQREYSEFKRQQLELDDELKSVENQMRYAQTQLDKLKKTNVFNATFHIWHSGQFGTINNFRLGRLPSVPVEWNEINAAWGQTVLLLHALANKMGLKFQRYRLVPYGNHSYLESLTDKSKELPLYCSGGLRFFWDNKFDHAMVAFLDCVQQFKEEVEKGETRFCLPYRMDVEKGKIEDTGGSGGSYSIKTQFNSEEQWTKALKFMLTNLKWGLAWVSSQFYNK
binder,measurement,value
"GST-RhoB (118–196) (domain or fragment, human, UniProt P62745 118-196, looked up, source: E. coli BL21 (DE3), purified (Glutathione Sepharose 4B)) KKDLRSDEHVRTELARMKQEPVRTDDGRAMAVRIQAYDYLECSAKTKEGVREVFETATRAALQKRYGSQNGCINCCKVL",binding result,binds
